Five molecules from patent EP4803149A2 (Lyvgen Biopharma Holdings Limited, dated 2026) can be followed below.

Broadly, the EC50 is the concentration that produces a half-maximal response. A low value points to a more potent agent.

B1: Anti-CD3 Ly305 (antibody, V domains shown)
VH: EVQLVESGGGLVQPGGSLRLSCAASGFTFSTYAMNWVRQAPGKGLEWVGRIRSKYNNYATYYADSVKGRFTISRDDSKNSLYLQMNSLKTEDTAVYYCVRHGNFGNSYVSWFAYWGQGTLVTVSS
VL: QAVVTQEPSLTVSPGGTVTLTCRSSTGAVTTSNYANWVQQKPGQAPRGLIGGTNKRAPWTPARFSGSLLGGKAALTITGAQAEDEADYYCALWYSNLWVFGGGTKLTVL
notes: mAb; also called parent anti-CD3 mAb
B2: Ly2278 (bispecific antibody)
chain 1: QVQLQQSGAELVRPGSSVKISCKASGYAFSSYWMNWVKQRPGQGLEWIGQIWPGDGDTNYNGKFKGKATLTADESSSTAYMQLSSLASEDSAVYFCARRETTTVGRYYYAMDYWGQGTTVTVSSASTKGPSVFPLAPSSKSTSGGTAALGCLVKDYFPEPVTVSWNSGALTSGVHTFPAVLQSSGLYSLSSVVTVPSSSLGTQTYICNVNHKPSNTKVDKKVEPKSCGGGGSGGGGSGGGGSGGGGSEVQLVESGGGLVQPGGSLRLSCAASGFTFSTYAMNWVRQAPGKGLEWVGRIRSKYNNYATYYADSVKGRFTISRDDSKNSLYLQMNSLKTEDTAVYYCVRHGNFGNSYVSWFAYWGQGTLVTVSSGGGGSDKTHTCPPCPAPEAAGPSVFLFPPKPKDTLMISRTPEVTCVVVDVSHEDPEVKFNWYVDGVEVHNAKTKPREEQYNSTYRVVSVLTVLHQDWLNGKEYKCKVSNKALPAPIEKTISKAKGQPREPQVYTLPPSREEMTKNQVSLWCLVKGFYPSDIAVEWESNGQPENNYKTTPPVLDSDGSFFLYSKLTVDKSRWQQGNVFSCSVMHEALHNHYTQKSLSLSPG
chain 2: QVQLQQSGAELVRPGSSVKISCKASGYAFSSYWMNWVKQRPGQGLEWIGQIWPGDGDTNYNGKFKGKATLTADESSSTAYMQLSSLASEDSAVYFCARRETTTVGRYYYAMDYWGQGTTVTVSSASTKGPSVFPLAPSSKSTSGGTAALGCLVKDYFPEPVTVSWNSGALTSGVHTFPAVLQSSGLYSLSSVVTVPSSSLGTQTYICNVNHKPSNTKVDKKVEPKSCGGGGSGGGGSGGGGSGGGGSQAVVTQEPSLTVSPGGTVTLTCRSSTGAVTTSNYANWVQQKPGQAPRGLIGGTNKRAPWTPARFSGSLLGGKAALTITGAQAEDEADYYCALWYSNLWVFGGGTKLTVLGGGGSDKTHTCPPCPAPEAAGPSVFLFPPKPKDTLMISRTPEVTCVVVDVSHEDPEVKFNWYVDGVEVHNAKTKPREEQYNSTYRVVSVLTVLHQDWLNGKEYKCKVSNKALPAPIEKTISKAKGQPREPQVYTLPPSREEMTKNQVSLSCAVKGFYPSDIAVEWESNGQPENNYKTTPPVLDSDGSFFLVSKLTVDKSRWQQGNVFSCSVMHEALHNRFTQKSLSLSPG
chain 3: not shown
notes: CD19/CD3; central CD3 Fv
B3: Ly1965 (bispecific antibody)
chain 1: QVQLVQSGAEVKKPGASVKVSCKASGYTFTSYVMHWVRQKPGQGLEWIGYINPYNEGTESTDKFKGRATMTSDKSTSTVYMELSSLRSEDTAVYYCASIYYGYEGTYFGVWGQGTLVTVSSASTKGPSVFPLAPSSKSTSGGTAALGCLVKDYFPEPVTVSWNSGALTSGVHTFPAVLQSSGLYSLSSVVTVPSSSLGTQTYICNVNHKPSNTKVDKKVEPKSCGGGGSGGGGSGGGGSGGGGSEVQLVESGGGLVQPGGSLRLSCAASGFTFSTYAMNWVRQAPGKGLEWVGRIRSKYNNYATYYADSVKGRFTISRDDSKNSLYLQMNSLKTEDTAVYYCVRHGNFGNSYVSWFAYWGQGTLVTVSSGGGGSDKTHTCPPCPAPEAAGPSVFLFPPKPKDTLMISRTPEVTCVVVDVSHEDPEVKFNWYVDGVEVHNAKTKPREEQYNSTYRVVSVLTVLHQDWLNGKEYKCKVSNKALPAPIEKTISKAKGQPREPQVYTLPPSREEMTKNQVSLWCLVKGFYPSDIAVEWESNGQPENNYKTTPPVLDSDGSFFLYSKLTVDKSRWQQGNVFSCSVMHEALHNHYTQKSLSLSPG
chain 2: QVQLVQSGAEVKKPGASVKVSCKASGYTFTSYVMHWVRQKPGQGLEWIGYINPYNEGTESTDKFKGRATMTSDKSTSTVYMELSSLRSEDTAVYYCASIYYGYEGTYFGVWGQGTLVTVSSASTKGPSVFPLAPSSKSTSGGTAALGCLVKDYFPEPVTVSWNSGALTSGVHTFPAVLQSSGLYSLSSVVTVPSSSLGTQTYICNVNHKPSNTKVDKKVEPKSCGGGGSGGGGSGGGGSGGGGSQAVVTQEPSLTVSPGGTVTLTCRSSTGAVTTSNYANWVQQKPGQAPRGLIGGTNKRAPWTPARFSGSLLGGKAALTITGAQAEDEADYYCALWYSNLWVFGGGTKLTVLGGGGSDKTHTCPPCPAPEAAGPSVFLFPPKPKDTLMISRTPEVTCVVVDVSHEDPEVKFNWYVDGVEVHNAKTKPREEQYNSTYRVVSVLTVLHQDWLNGKEYKCKVSNKALPAPIEKTISKAKGQPREPQVYTLPPSREEMTKNQVSLSCAVKGFYPSDIAVEWESNGQPENNYKTTPPVLDSDGSFFLVSKLTVDKSRWQQGNVFSCSVMHEALHNRFTQKSLSLSPG
chain 3: EIVLTQSPATLSLSPGERATLSCRASSSVSYMHWYQQKPGQAPRPWIYATSNLASGIPARFSGSRSGTDYTLTISSLEPEDFAVYYCQQWSSNTLTFGGGTKVEIKRTVAAPSVFIFPPSDEQLKSGTASVVCLLNNFYPREAKVQWKVDNALQSGNSQESVTEQDSKDSTYSLSSTLTLSKADYEKHKVYACEVTHQGLSSPVTKSFNRGEC
notes: B7H3/CD3; central CD3 Fv
B4: Ly2128 (multi-specific antibody)
chain 1: QVQLVQSGAEVKKPGASVKVSCKASGYTFTSYVMHWVRQKPGQGLEWIGYINPYNEGTESTDKFKGRATMTSDKSTSTVYMELSSLRSEDTAVYYCASIYYGYEGTYFGVWGQGTLVTVSSASTKGPSVFPLAPSSKSTSGGTAALGCLVKDYFPEPVTVSWNSGALTSGVHTFPAVLQSSGLYSLSSVVTVPSSSLGTQTYICNVNHKPSNTKVDKKVEPKSCGGGGSGGGGSGGGGSGGGGSEVQLVESGGGLVQPGGSLRLSCAASGFTFSTYAMNWVRQAPGKGLEWVGRIRSKYNNYATYYADSVKGRFTISRDDSKNSLYLQMNSLKTEDTAVYYCVRHGNFGNSYVSWFAYWGQGTLVTVSSGGGGSDKTHTCPPCPAPEAAGPSVFLFPPKPKDTLMISRTPEVTCVVVDVSHEDPEVKFNWYVDGVEVHNAKTKPREEQYNSTYRVVSVLTVLHQDWLNGKEYKCKVSNKALPAPIEKTISKAKGQPREPQVYTLPPSREEMTKNQVSLWCLVKGFYPSDIAVEWESNGQPENNYKTTPPVLDSDGSFFLYSKLTVDKSRWQQGNVFSCSVMHEALHNHYTQKSLSLSPGGGGGSGGGGSGGGGSGGGGSQVQLVQSGAEVKKPGASVKVSCKASGYTFTSYYIHWVRQAPGQGLEWIGCIYPGNVNTNYNEKFKDRATLTVDTSISTAYMELSRLRSDDTAVYFCTRSHYGLDWNFDVWGQGTTVTVSS
chain 2: not shown
chain 3: B3 chain 3
notes: Tri-specific B7H3/CD3/CD28; central CD3 Fv, terminal CD28 Fv
B5: Ly1963 (multi-specific antibody)
chain 1: QVQLVQSGAEVKKPGASVKVSCKASGYTFTSYVMHWVRQKPGQGLEWIGYINPYNEGTESTDKFKGRATMTSDKSTSTVYMELSSLRSEDTAVYYCASIYYGYEGTYFGVWGQGTLVTVSSASTKGPSVFPLAPSSKSTSGGTAALGCLVKDYFPEPVTVSWNSGALTSGVHTFPAVLQSSGLYSLSSVVTVPSSSLGTQTYICNVNHKPSNTKVDKKVEPKSCGGGGSGGGGSGGGGSGGGGSEVQLVESGGGLVQPGGSLRLSCAASGFTFSTYAMNWVRQAPGKGLEWVGRIRSKYNNYATYYADSVKGRFTISRDDSKNSLYLQMNSLKTEDTAVYYCVRHGNFGNSYVSWFAYWGQGTLVTVSSGGGGSDKTHTCPPCPAPEAAGPSVFLFPPKPKDTLMISRTPEVTCVVVDVSHEDPEVKFNWYVDGVEVHNAKTKPREEQYNSTYRVVSVLTVLHQDWLNGKEYKCKVSNKALPAPIEKTISKAKGQPREPQVYTLPPSREEMTKNQVSLWCLVKGFYPSDIAVEWESNGQPENNYKTTPPVLDSDGSFFLYSKLTVDKSRWQQGNVFSCSVMHEALHNHYTQKSLSLSPGGGGGSGGGGSGGGGSGGGGSQVQLVQSGAEVKKPGASVKVSCKASGYTFAGFEMHWVRQAPGQGLEWMGAIDPKTGGTDYNQKFKDRVTMTRDTSISTAYMELSRLRSDDTAVYYCARDLGYFDVWGQGTLVTVSS
chain 2: QVQLVQSGAEVKKPGASVKVSCKASGYTFTSYVMHWVRQKPGQGLEWIGYINPYNEGTESTDKFKGRATMTSDKSTSTVYMELSSLRSEDTAVYYCASIYYGYEGTYFGVWGQGTLVTVSSASTKGPSVFPLAPSSKSTSGGTAALGCLVKDYFPEPVTVSWNSGALTSGVHTFPAVLQSSGLYSLSSVVTVPSSSLGTQTYICNVNHKPSNTKVDKKVEPKSCGGGGSGGGGSGGGGSGGGGSQAVVTQEPSLTVSPGGTVTLTCRSSTGAVTTSNYANWVQQKPGQAPRGLIGGTNKRAPWTPARFSGSLLGGKAALTITGAQAEDEADYYCALWYSNLWVFGGGTKLTVLGGGGSDKTHTCPPCPAPEAAGPSVFLFPPKPKDTLMISRTPEVTCVVVDVSHEDPEVKFNWYVDGVEVHNAKTKPREEQYNSTYRVVSVLTVLHQDWLNGKEYKCKVSNKALPAPIEKTISKAKGQPREPQVYTLPPSREEMTKNQVSLSCAVKGFYPSDIAVEWESNGQPENNYKTTPPVLDSDGSFFLVSKLTVDKSRWQQGNVFSCSVMHEALHNHYTQKSLSLSPGGGGGSGGGGSGGGGSGGGGSDIQMTQSPSSLSASVGDRVTITCRASQDIRSNLNWYQQKPGGAVKLLIYYTSRLHSGVPSRFSGSGSGTDYTLTISSLQPEDFATYFCQQSEKLPRTFGGGTKVEIR
chain 3: B3 chain 3
notes: B7H3/CD3/CD137 tri-specific; central CD3 Fv, terminal CD137 Fv

This assay addresses CD3 (human). The assay is described as follows: ELISA or FCM (as in Example 2). On the technique in general: In an ELISA, binding on a coated surface is turned into a signal by an enzyme label.
In turn, B1 registered an EC50 of 0.03 µg/mL.

Take B2: the EC50 amounted to 1.46 µg/mL.

B3 had an EC50 of 0.419 µg/mL.

The molecule B4 had an EC50 of 1.08 µg/mL. This EC50 is about 2.6-fold higher than that of the molecule before.

B5 yielded an EC50 of 0.74 µg/mL. This EC50 and that of the molecule before are within 1.5-fold of each other.
